Three molecules from US20260227386A1, “DIAGNOSIS AND TREATMENT OF NEUROGENIC HETEROTOPIC OSSIFICATION” (SERVIZO GALEGO DE SAÚDE, priority 2023, published 2026) can be followed below.

Test [1] concerns SaOS2 cells. In words: Inflammatory stimuli (IL1β, LPS) on SaOS2 differentiated with ACM, RT-PCR. Type of test: cell-based, Human. Here is the method:
To determine the effect of an external inflammatory factor on the differentiation process of SaOS2 stimulated with ACM, SaOS2 cells were seeded and stimulated with the ACM in the presence and absence of 0.1 ng/ml of IL1 and 100 ng/mL of lipopolysaccharide (LPS). To do this, once the SaOS2 completed the 3-day differentiation with the ACM, these cells were treated with the inflammatory stimuli and were differentiated for a further 48h.
(§1) RNA was extracted using TriReagent® and the RNA extraction Kit E.Z.N.A. Total RNA Kit I® (Omega Bio-Tek Inc., Norcross, GA, USA) following the manufacturer's instructions. The gene expression of bone related markers, inflammatory and adipogenic markers were measured using iTaq Universal SYBR Green Supermix (BioRad Laboratories, Hercules, CA, USA). Relative quantitation was performed using the ΔΔCt Comparative Method. Results are expressed as 2^−ΔΔCt versus unstimulated control or DM.

The next test has as its system ATDC5 cells. In words: ATDC5 differentiation into chondrocytes, gene expression by RT-PCR. Particulars: TGFβi 3 μg/mL. The test is classed as cell-based. Here is the method:
(§2) SaOS2 were differentiated for 3 days, C3H10T1/2 for 7 days, and ATDC5 for 14 days. In order to induce cell differentiation, the media were changed three times a week in SaOS2 and ATDC5 cells, starting the process 24 h post-culture. In these cells, the same medium was used in all the changes made. Regarding the C3H10T1/2, two media were used to differentiate them into adipocytes: the induction medium which was changed after 6 h post-culture, and the maintenance medium which replaced the induction medium after 4 days. after culture. All cells were seeded in 24-well plates (Thermo Fisher Scientific, Waltham, MA, USA).
(§3) SaOS2, C3H10T1/2, and ATDC5 cells were differentiated in the presence or absence of 3 μg/mL of human recombinant protein transforming growth factor beta-induced (TGFβi), similar concentration to TGFβi-blood levels. It should be noted that this protein was added newly in every medium change corresponding to the differentiation of each cell line.
as §1

Test [2] deals with SaOS2 cells. In words: SaOS2 differentiation into osteoblasts, gene expression by RT-PCR. Type of test: cell-based, Human. Particulars: SaOS2 differentiated into osteoblasts three days, presence or absence of stimulus (ACM; TGFβi 3 μg/mL). Here is the method: as §2
After 24 h SaOS2 post-culture, the medium was changed to ACM, and they were differentiated for 3 days.
as §3, §1

The subject of test [3] is C3H10T1/2 cells. Description: C3H10T1/2 differentiation into adipocytes, gene expression by RT-PCR. Type of test: cell-based. The conditions noted are these: C3H10T1/2 differentiated into adipocytes seven days. Here is the method:
as §2
Regarding the C3H10T1/2, due to the difference in the composition of their differentiation media and that of the SaOS2, we proceeded with the concentration and purification of the 2 mL DM and ACM proteins, using the filter units 3 kDa Amicon® Ultra-0.5 mL Centrifugal Filters Ultracel 3K (Millipore, Burlington, Massachusetts, USA) following the supplier's instructions. Once the process was finished, the pellets were resuspended in the differentiation medium corresponding to the cell line, filtered through a 0.2 μm filter (Thermo Fisher Scientific, Wlatham, MA, USA), and cells were differentiated for 7 days as was previously described. For cell differentiation stimulated with the NCM, NCM was concentrated using Amicon® Ultra-0.5 mL Centrifugal Filters Ultracel 3K 3 kDa centrifugal filter units, according to the supplier's specifications. Then, they were resuspended with the C3H10T1/2 differentiation medium and filtered through a 0.2 μm filter. Finally, C3H10T1/2 cells were differentiated into adipocytes in the presence and absence of NCM for 7 days, as previously described.
as §3, §1

The test system of test [4] is C3H10T1/2 cells. In words: RNA quantification and cell counting. The test is classed as cell-based. Particulars: C3H10T1/2 differentiated to adipocytes seven days, TGFβi 3 μg/mL. The source says:
The RNA of the differentiated C3H10T1/2 was quantified using a NanoDrop One® spectrophotometer (Thermo Fisher Scientific, Wlatham, MA, USA).
Moreover, microscopic photos of the different conditions were taken. Subsequently, the photograph was divided into 3 rectangles of equal size and positioned in the same place in the images. The live cells were counted, and the number of cells was compared with the rest of the samples.

[5] abbreviates: SaOS2 differentiated three days with ACM, then IL1β 0.1 ng/mL for 48h.
Where [6] appears, read: ATDC5 differentiated into chondrocytes three, seven, fourteen days.
Setting [7] is: presence or absence of stimulus (ACM; NCM; TGFβi 3 μg/mL).

On to IL1β: inflammatory stimulus, 0.1 ng/ml, for which, in the test on SaOS2 cells [1] (setting [5]), the “BMP2 gene expression induced by ACM” value was “increased”, the CCL2 gene expression entry was “increased”, the IL6 gene expression entry was “increased” and the “LIF gene expression induced by ACM” value is recorded as “increased”. In the test on SaOS2 cells [1] (setting [5]), the SPP1 gene expression result is on record as “did not modify” and the VCAM gene expression result is reported as “increased”.

As for lipopolysaccharide [LPS], the “inflammatory profile or bone metabolism” value in the test on SaOS2 cells [1] (SaOS2 differentiated three days with or without ACM, then LPS 100 ng/ml for 48h) is on record as “did not alter”.

B1: TGFβi: human recombinant protein transforming growth factor beta-induced, used at 3 μg/mL (protein)
chain: GPAKSPYQLVLQHSRLRGRQHGPNVCAVQKVIGTNRKYFTNCKQWYQRKICGKSTVISYECCPGYEKVPGEKGCPAALPLSNLYETLGVVGSTTTQLYTDRTEKLRPEMEGPGSFTIFAPSNEAWASLPAEVLDSLVSNVNIELLNALRYHMVGRRVLTDELKHGMTLTSMYQNSNIQIHHYPNGIVTVNCARLLKADHHATNGVVHLIDKVISTITNNIQQIIEIEDTFETLRAAVAASGLNTMLEGNGQYTLLAPTNEAFEKIPSETLNRILGDPEALRDLLNNHILKSAMCAEAIVAGLSVETLEGTTLEVGCSGDMLTINGKAIISNKDILATNGVIHYIDELLIPDSAKTLFELAAESDVSTAIDLFRQAGLGNHLSGSERLTLLAPLNSVFKDGTPPIDAHTRNLLRNHIIKDQLASKYLYHGQTLETLGGKKLRVFVYRNSLCIENSCIAAHDKRGRYGTLFTMDRVLTPPMGTVMDVLKGDNRFSMLVAAIQSAGLTETLNREGVYTVFAPTNEAFRALPPRERSRLLGDAKELANILKYHIGDEILVSGGIGALVRLKSLQGDKLEVSLKNNVVSVNKEPVAEPDIMATNGVVHVITNVLQPPANRPQERGDELADSALEIFKQASAFSRASQRSVRLAPVYQKLLERMKH
With B1, in the test on ATDC5 cells (setting [6]), the COL2A1 gene expression entry is on record as “decrease”, the COLX gene expression entry is “decrease” and the SOX9 gene expression result was “decrease”. Moreover, the SPP1 expression entry in the test on ATDC5 cells (early stages of ATDC5 differentiation) is on record as “increased”. Also, in the test on SaOS2 cells [2], the AXIN2 gene expression entry was “did not modify”, the BMP2 gene expression result is listed as “increased”, the BMP4 gene expression entry is given as “did not modify” and the CCL2 gene expression entry was “increased”. For the same molecule, in the test on SaOS2 cells [2], the CD44 gene expression result is “did not modify”, the GPNMB gene expression entry is “did not modify”, the LIF gene expression result is on record as “did not modify” and the OPG gene expression entry is “did not modify”. In the test with SaOS2 cells [2], the PDGFRβ gene expression entry is listed as “did not modify”, the PDGFβ gene expression entry is listed as “did not modify”, the RANKL gene expression result was “did not modify” and the RANKL/OPG ratio entry is “did not modify”. Moreover, in the test on SaOS2 cells [2], the RUNX2 gene expression result is given as “did not modify”, the SPP1 gene expression result is recorded as “increased”, the TGFβi gene expression result was “increased” and the VCAM gene expression result is given as “increased”. In the test with SaOS2 cells [2] (listed as TGFBi recombinant), the BMP2 gene expression entry is reported as “partial recapitulation”, the CCL2 gene expression entry was “partial recapitulation”, the SPP1 gene expression entry is listed as “partial recapitulation” and the VCAM gene expression result is reported as “partial recapitulation”. Moreover, in the test on C3H10T1/2 cells [3] (setting [7]), the ADIPOQ gene expression entry is “reduced”, the AXIN2 gene expression entry is “no modifications”, the CCL2 gene expression entry is “no modifications” and the CD44 gene expression result is “increase”. In addition, in the test with C3H10T1/2 cells [3] (setting [7]), the FABP4 gene expression result was “reduced”, the GPNMB gene expression entry was “no modifications”, the IL6 gene expression entry was “no modifications” and the PLIN2 gene expression entry is “reduced”. Besides, in the test on C3H10T1/2 cells [3] (setting [7]), the PPARG gene expression result was “reduction was statistically significant”, the RUNX2 gene expression entry was “increase”, the SPP1 gene expression entry was “increase” and the VCAM gene expression entry was “increase”. For the same molecule, in the test with C3H10T1/2 cells [3] (presence or absence of stimulus (ACM; NCM; TGFβi 3 μg/mL), listed as TGFBi), the PPARG gene expression entry is given as “significantly decreased”. Further, the TGFβi gene expression entry in the test with C3H10T1/2 cells [3] (presence or absence of stimulus (ACM; TGFβi 3 μg/mL)) is on record as “increase”. Besides, in the test with C3H10T1/2 cells [4], the “cell proliferation: amount of RNA” value is “increase” and the “cell proliferation: number of cells” value is “increase”. Also, in the test with C3H10T1/2 cells [4] (listed as TGFBi), the “cell proliferation: amount of RNA” value is on record as “differences on cell proliferation were observed” and the “cell proliferation: number of cells” value is recorded as “differences on cell proliferation were observed”.
